# Measured values as given in the DeepSol protein solubility set.
# Assay: soluble on expression in E. coli; label from the status in PepcDB or PDB records
row,Sequence,soluble on expression in E. coli
1,MCFRIADGTFFGWEGCFFQAGSCPGTCTHVWNYAQTVANLFPRLERNMRETEFLRETDGQGKMNFRAKIQLEGKPWDMYPAVDGQLGSILRVYREWKISGDDDFLKKIWNQVVSALEFSASYWDSNQDCVLDGQQHNTYDIEFYGVNSLGNSIYYAALKAGAEMAEYLGEHERSQKWRSMEQAGCKRMDEMLFNGEYYRQVTDGDIDEYKYQYGEGCLSDQLLGQTLAHLYGLGHLFPEDHVKSAVFAIYKYNFKERMGSHKSLQRGYAYQDEPGLLLCSWPSGGRPKQPFVYSDEVWTGIEYQVAAGLIYEGFLQEGLEIVRAVRSRYDGYKRNPFNEVECGNHYARSMASWGVLNALSGLQVDLPHNSVTISPKVNQDCFSSFYSTGTEWGICRQFKDQSGALIQSFEALYHADLEHHHHHH,not soluble
2,MCFTKKSTKTPPEPISKDSADKKKKTTIKKGKKFPMMNMIVKNKKNEVQVEKKPEEVPEQNKSVKDQTKKEEVKVVEEDKVEKKVEQKKPIINRPNCVAINPRSATSGKKNKYKFKYGQIDQQELSINNDKTEYLENAQLTKLMSHADVRALMGGQFAQGENADTNNCQDTVEEVDSEMLEIAFSPLLAVIPREDERVYGAFVHPTEQKKNAEA,soluble
3,MCMGGINDNLVRFVYKYKIKMKRERSAMNIEYMNQKVEFSLVRKERKSIKISVNRDFTIEVIAPFNVAEEEIKNVVYKKMKWIIKQMKRMENIIDINEEIKYSDGDAFYIFGTPYRLIVKKGIKNKMRIFGENVYMYIKEKDNYEYKKNYAEKWYKKIAAIELEYLYNEKYKIFDEIYDEKPKLIRKMKSKWGSYSPADNKVVLNTQLVKIPKTCIEYVIIHELCHVKFRNHRKEFYNYVNNFMPDWKLKKESLDRYVNVLEHHHHHH,not soluble
4,MCMGTRSKRSERGRCRMHLERCVCPAIPRYDLTTRVVLVMHHREYPKPTATGPLALAALPNSELRIHGERDSLLDLGDLATPERRTLLLYPGDDVPVLTRELLERDRRPVTLVVPDGTWRQASRMGRRLPGLDHAEMVRLPEGLPTEWGIRRENHPQGLATFEAIARALGIIESPAVQTGLEELFRLMVRRTLSAGGRAILEHHHHHH,soluble
5,MCQATNGPSRVVTKKHRKFFERHLQLLPSSHQGHDVNRMAIIFYSISGLSIFDVNVSAKYGDHLGWMRKHYIKTVLDDTENTVISGFVGSLVMNIPHATTINLPNTLFALLSMIMLRDYEYFETILDKRSLARFVSKCQRPDRGSFVSCLDYKTNCGSSVDSDDLRFCYIAVAILYICGCRSKEDFDEYIDTEKLLGYIMSQQCYNGAFGAHNEPHSGYTSCALSTLALLSSLEKLSDKFKEDTITWLLHRQVSSHGCMKFESELNASYDQSDDGGFQGRENKFADTCYAFWCLNSLHLLTKDWKMLCQTELVTNYLLDRTQKTLTGGFSKNDEEDADLYHSCLGSAALALIEGKFNGELCIPQEIFNDFSKRCCF,soluble
6,MCSISRGKLSTVLKSTSSCIFENLAYEEHIFRTHNVAQNGEILLMWSNRPAVVIGRHQNPWIEVNIPYANKNNIQIVRRHSGGGTVYHDLGNLNISLLTTHAQHCRPKNLKFISDALNQQFSVKIVPNKRDDMELHPGERKCSGTAARIARGQAYHHLTLLVGADLQVLSKSLKSPWRDKIESNATRSVRAPAVGFLKQDDANANVEQSKLAIVEAYRKLFEESHIKTVNVAEEVKKNAEISKIFDELKAWKWIYGKSPKFQYSRENKSIIEMMRTAHKDREPWRDIRRMSKWQGVRVCDEPSPWYMSIPTPFSQFHNVLPEEQEEMVFTELKLFLVGNQTENIRIDEYDKHDLPISILANISFDPFIRSELERFHDILVTVATIKICCYAITHDSVTFSSISSAVASTIEKKVNGFITKICTKLSGSTEANQQMNQLLREMHTIHESLNFYNGIVKSIYLDQLIGGQVLSLLDSKRRHVFSGNVVQNLDDVFQAGWKVFARSIGRLVCKFEADHMDYEFVIWSTKQMTDSQCKTLVPSNPSRQIKSSRYVVIESLCPDFFKKYLDILVRCAEFGDSAKSDSSLRRSTSKKINESESVESVMEDVRNVDWSNLDVATTVRMLVQFSRKESACLLREITSATNVDQAIRDIHDLLIKGSCAHDVMLFGLKADILQKPIDEVGNIRMKKLTNDVLGAAAEKHHPFWKYFSFVIDKQNVFEMLGQRTSLGGNADNLRDNVTPMLFECISVKMDCPIEIEPIISMKAVFILTPVFRIWIQLHVASYTIANYRDSIRGQMPSRSLGDIAMKKHLMHALDAEISSIKQKWVGYVDLLINLYYERIQKAASLDEYTECQDILASDVTNMMGISELSQLENIKDILNIIWNYDNADSNLADLIADFEEVQSRARMDVVVA,not soluble
7,MDAALRRLQTFLSTIPQCDHTKYEGHYQQVFYIIFSLLGYYVDVEVRTSRGRVDVVLRTEATLYVMELKLDKNATVAMEQINLKNYPERFALCGLPVVKVAVNFDSESGTLGDWMIEK,not soluble
8,MDAIKKKMQAMKIEKDNALDRADAAEEKVRQITEKLERVEEELRDTQKKMTQTGDDLDKAQEDLSAATSKLEEKEKTVQEAEAEVASLNRRMTLLEEELERAEERLKIATEKLEEATHNVDESERVRKVMENRSLQDEERANTVEAQLKEAQLLAEEADRKYDEVARKLAMVEADLERAEERAEAGENKIVELEEELRVVGNNLKSLEVSEEKALQREDSYEEQIRTVSSRLKEAETRAEFAERSVQKLQKEVDRLEDELVHEKERYKTISEELDSTFQELSGY,not soluble
9,MDAPRINKWLKPLSALYGVGVRLRNYLFDKNVLISNSFDIPIVCVGNITIGGTGKTPHVEYLIRLLHPRYRVAVVSRGYKRKTKGMIVATEGSTAWDIGDEPRQIKRKYPDLTVIVDADRSRAIGYLCDLAEEQRPQLIVLDDGFQHRKVKADLNIVLTDYNRILTKDYLLPAGRLREPAGSIQRADMVILTKCPDDLAPIDLRAAKRDLALYPHQKLFFSKFLYGQGLKPLFSDQSPSAEVRSALAIAGIASPKLFFREIRTRFPSGTDRIYPDHHEFTDREICLLIQDWHELHRKDANAIVVCTEKDAMRLALRQSSFPQEMQERFYYLPVEVKLMFDQEKVFVDRLLGVIQHKKLEHHHHHH,not soluble
10,MDAVSPLDAYERAVQRGFQPDQAQLQAVQQLQACYLALTESRGQAQGVYLWGPVGRGKTWLMDRFFESLNVPARRQHFHHFMRWVHKRMFELMGTPQPLTVVAKELARDVRVMCFDELFVTDIGDAVILGGLLQVMFEQGVVLVCTSNQPPDQLYSHGHNRERFLPAVAAIQKYMKVVAVDGGEDHRLHPGQLHQRYWVAQAGQPSALQGIFEALSAGQPVHDSQVMLGYRSINVVEHSDTAVWCRYRDLCEQPLAAMDFIALCDRFSVILLSEVPVLGAVQREAKIARGTEDGVEQVTAGDRELPQLSPNDDGVRRFIALVDECYDRRIPLYVEAPVPMDQLYTQGYLSFAFRRTLSRLQEMQLERFTESLEHHHHHH,not soluble
11,MDDHNALLAERHTIFQSSLMTALLDGIYDGEISIGELLGHGNFGIGTFDALDGEMVILDGVCYQLRGDGSASEAALTQRSPFAIATNFVPRLKARVPRGMHRSELSDFITSLLPSENYMYAVRISGMFSSVSVRTVTKQERPYRPMTQATGDDAELEFTNVSGVVAGFRTPIYEKGIGVPGCHVHFIDTDRTSGGHVLDFTMSEGTIEVCPGTDLQLRLPLTQDFSKASLAPDDLDAQIHATEVKG,not soluble
12,MDDPFASLEPLAVAPSGPEGVRAQFDQMEDIPPPRPRQPPPAQEDPVEIEVTEDGVARAFTEKYGGTLRFDHDAGRWYHWQEDHWQADTTSRAFEYCRRLARLASEGAKHSLLSTARKASFAGGVERLARADPAHAVTQEAWDRDPWLVACPGETVDLRTGRSAVPRPEDGITRRVAVAPAAQETCPTWWQFLEDATGADSSVMRFLQQWAGYSLTGITREHTLVFLYGDGGNGKSVFINTLTGLLGDYAATAGMETFTASKSDRHPTDLAMLAGARLVAASETEEGRAWAESRIKQMTGGDRITARFMRRDFFTYTPQFKLTLVGNHRPALANVKPVEPWALVVPAELETVAQQVLAEIAAAAVSDVNPFSGTLELIVEPGLTSATGWYLIGNPALHDGLAHAFLDGQSAPRIETRAGWNTLGMEFRLTWAVDAKFIGTASWFRNPGASGCPRCRPRNAQRQGVALLCLARRSEVLDRLEHHHHHH,not soluble
13,MDEDVGLEATNYSRGDESRSEEQEKNVVRWRIVQQSTGPNPKPRHGHRAVVLKELIVIFGGGNEGMIDELHAYNTQKREWTAPQCCGDVPTPAAAFGAISLGNKIYRFGGMTEYGKYTNDLYELQSTRWEWRRLNPRVHSNGHLPCPRIGHSFVVSQKSQKAYVFGGLSNDLNDPKRNVPHYLDDLYVINLSGPQHLIWEKLNATGPGPISRESHTAVIYEKDSISRMVVYGGMNGVRLGDLWYLNLNTLHWTEIKFDDPRTGIPPMPRSLHSSVLIGDKMFVYGGWVPLLEHASTEQQTEKEWKCTSSLGCWNITEDRWVPLHLYCSDEDTIPRGRAGHCAAAVGDRMYIWSGRDGYRKAWSNQVCCRDMWLLDTILPEQPGKVQLGRAGFNSLEISWPIVQGASGYFLQIGFGDAKEQSVSPIKRATTSPRKQPSIVPPSQKETEQSPKKPQGTAPSIISTQGTTYTAPADPKPATDEGGLPQDLFEDTEKNETASPKRSNDAQSADSSTCEQKKTDESGLEEDSEKDQKPSDAGETDEMKEENGDDDLPWFDVGIIDKATINVTHYFNDRQQSLEKQLNDLIDHNAFKCVNDSVFTTEDKIPLINGQSYRFRVSAINGLGKGAWSETASCKTCVPGYPSAPSSIRITKSHEGAQLTWEPPSNTNISGKIIEYSVYLAVKNQSANSADSQLAFMRVYCGPQADCQVLQSNLGTAFVDQTNKPAIIFRIAARNEKGYGPATQVRWLQDQQKIPVRTNYPNNSGFIYQQHGGQQKRARFDHQ,not soluble
14,MDEFYISIETVGNNIVERYIDENGKERTREVEYLPTMFRHCKEESKYKDIYGKNCAPQKFPSMKDARDWMKRMEDIGLEALGMNDFKLAYISDTYGSEIVYDRKFVRVANCDIEVTGDKFPDPMKAEYEIDAITHYDSIDDRFYVFDLLNSMYGSVSKWDAKLAAKLDCEGGDEVPQEILDRVIYMPFDNERDMLMEYINLWEQKRPAIFTGWNIEGFDVPYIMNRVKMILGERSMKRFSPIGRVKSKLLQNMYGSKEIYSIDGVSILDYLDLYKKFAFTNLPSFSLESVAQHETKKGKLPYDGPINKLRETNHQRYISYNIIDVESVQAIDKIRGFIDLVLSMSYYAKMPFSGVMSPIKTWDAIIFNSLKGEHKVIPQQGSHVKQSF,soluble
15,MDEKLVKEVIFSFREVQRKTHHVLAEEAANREITTTQLLAIRELQKESDLTLGELAERMKLGKSTVSGIVDRLVKAGFLKRTRNESNRRALSLELTEKGATKAAETYHVFFNRLEPILEIGEERLKEMLEMHQEIITILEREGARD,not soluble
16,MDEMIFDPTMSKKKKKKKKPFMLDEEGDAQTEETQPSETKEVEPEPTEEKDVDADEEDSRKKDASDDLDDLNFFNQKKKKKKTKKIFDIDEAEEAIKDVKIESDAQEPAEPEDDLDIMLGNKKKKKKNVKFPEEDEILEKDEALEDEDSKKDDGISFSSQTAWAGSERDYTYEELLNRVFNIMREKNPDMVAGEKRKFVMKPPQVVRVGTKKTSFVNFTDICKLLHRQPKHLLAFLLAELGTSGSIDGNNQLVIKGRFQQKQIENVLRRYIKEYVTCHTCRSPDTILQKDTRLYFLQCETCHSRCSVASIKTGFQAVTGKRAQLRAKAN,soluble
17,MDESNVSQELLNSNRTEIARCVLLKDLVVMYGGYEVYANHVDLLMCFHQLMIVLAAPPIKPMQKEPGTLLPPRAVVYKLPAIKGSMKDAFSAHKLLKKSYAKPIVDISSTSGDSDPEWWSDRELTPDLNLKRELLLKKARFSRKTFDKRSSYIAHFKKSHLENYLNSDSDTVSNEKPKTLAQLKNFSKSNLVEYHPSMYRDVGVVIIFFSIYYYDLNSFKVNSEIEKQDKIFQEYKKWIFQSVQERRFVSKECTEPKVLSQLHVHVHQN,not soluble
18,MDESTCPIIEAIREVGKENDLLVIRLLSDNDLGFNQILKLAGKMSPKTLSVTLKRLTEKKIIYRDVVSTQPFRVKYRLTEKGQELRNVLNDLGQWGERWILNNESQSAVNTENYRLKS,not soluble
